# Assay results published in paper PMC11214633.
# Assays:
# [1] = molecular target: prefusion-stabilized PRD-0038 S2 subunit trimer (PRD-0038 sarbecovirus); experiment: negative-stain EM
# [2] = molecular target: prefusion-stabilized SARS-CoV-1 S2 subunit trimer (SARS-CoV-1); experiment: negative-stain EM
Substance,stoichiometry N [1],stoichiometry N [2]
prefusion-stabilized PRD-0038 S2 subunit trimer (domain or fragment),3,
prefusion-stabilized SARS-CoV-1 S2 subunit trimer (domain or fragment),,3
